{
  "source": "patent US20210403538A1",
  "binders": {"B1": {"name": "EBOV-524 (antibody, V domains shown)", "VH": "QVQLVESGGGVVQPGGSLRLSCAASGFKFSTYGMNWVRQVPGQGLEWVSFVRHDGSNKYYSDSVKGRFTIFRDNSNNKLYLQMNNLRAEDTAVYYCAKDVLDCSRADCFIYYYYMDVWGKGTLVTVSS", "VL": "DIQMTQSPSSVSASPGDRVTITCRASQTISGWLAWYQQKPGKAPKLLIYDVSTLQSGVPSRFSGGGSGTEFTFTISSLQPEDYATYFCQQGNRIPLSFGGGTRVEIK"}, "B2": {"name": "EBOV-514 (antibody, V domains shown)", "VH": "QVQLQESGPGLVKPSQTLSLTCTVSGASITGGDDFWSWIRQPPGKGLEWIGFIHHSGNAYYRSSLKSRVHFSVDTSKDQFSLTLTSVTAADTAVYYCARDKAQAYGLLYHYHTDVWGKGTLVTVSS", "VL": "EIVMTQSPATLSVSPGERATLSCRASQSVSSNLAWYQQKPGLAPRLLIYGAFTRATDIPDRFSGSGSGTEFTLTISSLQSEDFAIYYCQYYNDWPPGYTFGQGTKLEIK"}, "B3": {"name": "EBOV-507 (antibody, V domains shown)", "VH": "QVQLVQSGAEVKKPGASVKVSCKASGYTFNNYLINWVRQAPGQGLEWMGWINPHSGGTEYAQQFQGRLTVTRDTSIRTAYMELRGLTFDDSAMYYCWIWFRSETFDFWGQGTLVTVSS", "VL": "DIQMTQSPSAMSASVGDRVTITCRASQDISNYLAWFQQKPGQGPKRLIFEASILHSGVPSRFSGSGSGTEFTLTISSLQPEDFATYYCLQHNTYLTFGQGTKVEIK"}, "B4": {"name": "EBOV-446 (antibody, V domains shown)", "VH": "QVQLVQSGAEVKKPGASVKVSCKASGYTFTDYYIYWVRQAPGQGLEWMGWLNPNSGGTDYAQKFQGRVTMTRDTSIRTAYMDLSRLRSDDTAVYYCARGRRHGAYVDWGQGTLVTVSS", "VL": "DIQLTQSPSFLSASVGDRVTITCRASQGISTYLAWYQQKPGKAPNLLIYDTSTLQSGVPSRFSGSASGTEFTLTISSLQPEDFATYYCQQLNFYLGGLTFGQGTRLEIK"}, "B5": {"name": "EBOV-510 (antibody, V domains shown)", "VH": "QVQLQESGPGLVKPSQTLSLTCTVSGGSITSGDYYLTWVRQPPGKGLEWIGHIYYSGSTSYNPSLKSRLLMSVDTSKNQFSLRLSSVTAADTAVYYCARESDGDPSRLYFYFAMDVWGQGTLVTVSS", "VL": "QSALTQPASVSGSPGQSITISCTGTSSDVGGSYFVSWYQHHPGKAPKLMISEVSNRPSGVSNRFSGSKSGNTASLTISGLRTEDEADYYCSSYTSNTTLVFGGETKVTVL"}, "B6": {"name": "EBOV-434 (antibody, V domains shown)", "VH": "QVQLVQSGAEVKKPGASVKVSCKASGYTFTGYYMFWVRQAPGQGLEWMGWINPNSGGTNYTQKFQGRVTMTRDTSISTAYMELSRLKSDDTAVYYCARDSGELLFVGSDVWGQGTLVTVSS", "VL": "DIQMTQSPSSVSASVGDRVTITCRASLDISYWLAWYQQKPGKAPKLLIYAASNLQSGVPSRFSGSGSGTDFTLTISSLQPEDFATYYCQQANSFPQTFGQGTRLELK"}, "B7": {"name": "EBOV-518 (antibody, V domains shown)", "VH": "QVTLKESGPTLVKPTQTLTLTCTFSGFSMNSSGMSVTWIRQPPGKALECLALIYWDDDKWYGPSLETRVTITKDASKNQVVLTMTNMDPVDTATYYCAHSGGLVAGAFDYWGQGTLVTVSS", "VL": "EIVMTQSPDSLTVSLGERATINCRSSQSVLYRVNSKNYLAWYQQKAGQTPKLIINWASTRESGVPDRFSGSGSGTDFTLTISSLQAEDVAVYYCQQYYNSPRTFGQGTKVEIK"}, "B8": {"name": "EBOV-451 (antibody, V domains shown)", "VH": "EVQLVESGGSVVRPGGSLRLSCAASGFKFDEYGMSWVRQAPGKGLEWVSGITWNGGVRTYADSVKGRFTISRDNAKNSVYLQMKSLRGEDTALYYCVSWGERYDAYFDYWGQGTLVTVSS", "VL": "EIVLTQSPGSLSLSPGERATLSCRASQSVNSRYFAWYQQRPGQAPRLLIYATSTRATGIPDRFSGSGSGTDFTLTISRLEPEDFAVYSCQQYGSSPYTFGQGTKLEIK"}, "B9": {"name": "EBOV-520 (antibody, V domains shown)", "VH": "QVQLQESGPGLGKPSETLSLSCTVSGASIRGYFWNWIRQPPGKGLEWIGYIHSTGSTNYNPSLKSRVTISVDTSKNQVSLNVNSVTAADTAVYFCARGAWNVATVYYYYGMDVWGQGTLVTVSS", "VL": "EIVLTQSPGTLSLSPGERATLSCRASQSVSSSYFAWYQQKPGQAPRLLISGTSTRAPGIPDRFSGSGSGTDFTLTISRLEPEDFAVYFCQQYGNSLYTFGQGTKLEIK"}, "B10": {"name": "EBOV-517 (antibody, V domains shown)", "VH": "EVQLVESGGGLVQPGGSLRLSCGASGFTFNKYWMTWVRQAPGKGLEWVANINQDGSEKYFAESVKGRFTVSRDNAKNSLYLQMNSLRAEDTAVYYCARGASIEVEILYYYHMDVWGKGTLVTVSS", "VL": "EIVMTQSPATLSVSPGERATLSCRASQSITTHLAWYQQKPGQAPRLLIYDTSTRATGIPARFSGSGSGTEFTLTISNMQSEDFAVYYCQQYHTWPPLTFGGGTKVEIK"}, "B11": {"name": "EBOV-442 (antibody, V domains shown)", "VH": "EVQLVESGGGLVKPGGSLRLSCTGSGGTGFTFKYAGMSWVRQAPGKGPEWIGRIKSRIDGGTTDYAAPVKDRFIVSRDDSRNTLYLQMNSLKTEDTAVYYCATGSGKGPSASFGESYYYYDFINVWGKGTTVTVSS", "VL": "ESVLTQSPGTLSLSPGERATLSCRASQSISRKYLAWYQQKPGQAPRLLIYGSSSRATGIPDRFSGSGSGTDFTLTISRLEPEDFAVYYCHQYESSPWTFGQGTKVEIK"}, "B12": {"name": "EBOV-511 (antibody, V domains shown)", "VH": "QLQLQESGPGLVKPSETLSLSCTVSGDSISANNYFWGWIRQPPGKELEWIGSIHNSGSTYYNPSLKSRVTTSVDTSRTQFSLKLHSVTAADAAIYYCARHLAPISGVIFIPSFFDSWGQGTLVTVSS", "VL": "EIVMTQSPATLSVSPGERATLSCRASQSVSSNLAWYQQRPGQAPRLLIFDASTRATGVPARFSGSGSGTEFTLTISSLQSEDFALYYCQQYNDWPPRLTFGGGTKVEIK"}, "B13": {"name": "EBOV-508 (antibody, V domains shown)", "VH": "QVQLVQSGAEVKKPGASVKVSCKASGYTFINYYMHWVRQAPGQGLEWMGTINPSTGRPNYAQKFQGRVTLTRDTSTTTVDMELSSLTSEDTAVYYCVSFQFYFDYWGQGTLVTVSS", "VL": "DIQMTQSPSAMSPSVGDRVTITCRASQGINNYLAWFQQKPGKVPKRLIYAASNLQSGVPSRFSGSGSGTEFTLTISSLQPEDFATYYCLQHNSYPWTFGQGTKVEIN"}},
  "data": [
    {"biological_target": "EBOV GP on recombinant EBOV-eGFP virus (Zaire ebolavirus (EBOV))", "assay": "cell-based or functional assay", "units": {"Neutralization, IC50 ng/mL": "ng/mL"}, "values": [
      {"binder": "B1", "Neutralization, IC50 ng/mL": "> 200000"},
      {"binder": "B2", "Neutralization, IC50 ng/mL": "> 200000"},
      {"binder": "B3", "Neutralization, IC50 ng/mL": "> 200000"},
      {"binder": "B4", "Neutralization, IC50 ng/mL": "> 200000"},
      {"binder": "B5", "Neutralization, IC50 ng/mL": "> 200000"},
      {"binder": "B6", "Neutralization, IC50 ng/mL": "> 200000"},
      {"binder": "B7", "Neutralization, IC50 ng/mL": "> 200000"},
      {"binder": "B8", "Neutralization, IC50 ng/mL": "> 200000"},
      {"binder": "B9", "Neutralization, IC50 ng/mL": 5740},
      {"binder": "B10", "Neutralization, IC50 ng/mL": "> 200000"},
      {"binder": "B11", "Neutralization, IC50 ng/mL": 467},
      {"binder": "B12", "Neutralization, IC50 ng/mL": "> 200000"},
      {"binder": "B13", "Neutralization, IC50 ng/mL": "> 200000"}
    ]}
  ]
}
